# Experimental data published in the DeepSol protein solubility set.
# Test: soluble on expression in E. coli; label from the status in PepcDB or PDB records
row,Sequence,soluble on expression in E. coli
1,MAHTGRMFKIEAAEIVVARLPLKFRFETSFGVQTHKVVPLLILHGEGVQGVAEGTMEARPMYREETIAGALDLLRGTFLPAILGQTFANPEAVSDALGSYRGNRMARAMVEMAAWDLWARTLGVPLCTLLGGHKEQVEVGVSLGIQADEQATVDLVRRHVEQGYRRIKLKIKPGWDVQPVRATREAFPDIRLTVDANSAYTLADAGRLRQLDEYDLTYIEQPLAWDDLVDHAELARRIRTPLCLDESVASASDARKALALGAGGVINLKVARVGGHAESRRVHDVAQSFGAPVWCGGMLESGIGRAHNIHLSCLSNFRLPGDTSSASRYWERDLIQEPLEAVDGLMPVPQGPGTGVTLDREFLATVTEAQEEHRA,soluble
2,SLKVKAINLYTYKEPFKSPISTPKVKLTHRESLFTEIVTYSGETYYGECNAFLTNWYDKETILTVVNRLRQWIPQVLHKDMTSFDSWLPYLNQMNDAPAARSMVVMAVYQMYNDLHDFEVQYGATVSGLTNSQIETLLETRPKRIKLKWSTSLIKDLETIRLLNFDCDIAIDANESLTKPSFLQLANVNTSDIIYIEEPFKILEDLNDIDMSIFPRIAIDEKALSIEKIQSIIQQYPIQVVVLKPFRLGGIDRMLNAMKILKEKNIRFVVGGMYEFGLSRYFTAMLAKEGSYPGDITPHGYYFSNDIVETSGILKGGMIYFTPPKVKRSLLNKV,soluble
3,MSLSYTKIFGLGGVHEIGKSTLVIHHEKSIAIIDAGIKFADSSTTGLHGIIPNYSYLKKHEDQIEGIFVTHGHEDHIGGIIYLLQQVKINKIFAPKIAIEYLKYKLEDRGLRIKVEFIEIKKDDTHHLGSLVVDFWTAQHSIPDAFGIRVKTPDGSVLCTGDFRIDYRPIGNYTDFSKLEQIGKEGLTLLLSDSTNAMRPNHSPSENDILKDIEKIMLAAKRKIIITTFASNLIRIKVIIELAEKLNKKIAVFGRSMVNGIAIGKELGYIKTPDSSFIDKKSIDQYEDKDIVILTTGSQGEQLAALSRMSYEKHPQVSIRKNDTIIFSSSPIPGNKMKIELLINRLYKLGAIIKENGVDGYLHTSGHAYQEEHEKIFSIAKPKYFFPYHGEYRMSVVHGQTAIRSGVKPENVIIPGIGEVVKMEEGHHHHHH,not soluble
4,MEISNVYVPPRSSSSNHARLMTDFSNIFQTKSKSIISGDVNAHHSAWHSEGSEDTRGRELAELIDLHPDLIIQNEQVHTRADTYSISSPDITICTADLATKCHWSTLYKLGSDHIPMKLKINQAATPKRPKRLVANFKKANWQLFRDHIESRINGYSGPMDAIPMEKFFNKVILEADKKAVPKGSIDPKLKVDPKPLRLLAKEIADRETRNPLDPEIPILTRELATKRAERKNSEWRKKAHDQNAKRKSDVSSFWKLIKGVTKGRQYKGPVAFGDGLPKTGATIANKMAKSLVEAGRTKISHDEELKWRKNVRRNKRISKIAPLQDRITSIELHNMAIKMSPSAAIGPDGIAQIHIRKLPMCGYSFLAYLYNVSLSTNIIPDKWKKANVIMIPKPKKDPAIASSYRPISLLSPIAKLLEKAILKRIKNSIESPAHQHGFKPEHSTTTAVIQVTNDIIGGLNMKNPPERAIMACLDLRAAFDKVPTKKLCNDLMEAQGIEPKIKLWLGNYLHKRLIRTSHDNHWSKWHTLLGGVPQGSVISPNLFTFYLKDMPTQQDTMLISYADDMSIIARDKKIEKAAEKVQLHIDEIAKYLKERGMSISAEKSTVTVFSCDPKEHKTKPDIYWMDDPIPVINAPKLLGITLNTMTGTKDHVGNAIKSMQNKTRVIKSMAGTSWGNDRETMLYTTQALIKPTALYGAPAWTSLLSDTNLEKLEIAYRSALRACVGLTKDTPTDHIYQECRVLPLKEEYKLATQQMYLAAIKSNTHPCRDLKAKGQLERTSKPPRIPPLKLSDSEKLRLDNIPGDKTETQKKNHTKLVADFIRNAPNNRILNKPPPRVNYRDERTLPKETRCELARLRCGHSLLVEKYKARLEERQIKKCLNCGDEEGDVQHLLSCLQTPVPLEELWTSPLTVAAALGLPTKTPFDPGGGH,not soluble
5,MTQVIIDGDACPVTNSIIELTKGTGIFVTVVRSFSHFSTVIQPEHVNIIYVDDGPDAVDYRIVKLVHSDDLVVTQDYGLASLLLNKAKIVMHHKGFIYNQENINTLLEQRHASAQFRKSGLEHHHHHH,not soluble
6,MNSQTTKDIPCFRSYLPDALRLRFEDKLTIRAIAQRLGLSHSTIHTLFQRFLASGIAWPLPDSVSFAQLDAILYANRKKELTEPQIREGSWRKERRTSYSREFKVRLAKQALQPGAVVARIAREHDINDNLLFKWKSQYEDGLLSDDDIQECMPVPVALTDTPEPTRPVTNPFWRNKHDERPEGAPGNVPRCELHLKSGVVKLFDPLTPELLRALIREMKGGIRLEHHHHHH,soluble
7,MGSDKIHHHHHHMKVVPAQRCVYSFSANMAPVEEVYPGEQVVFETLDALGGSYDKIDFSKVNPATGPVFVNGVKPGDTLKVRIKRIELPRRGMIVTGKGFGVLGDEVEGFHTKELEIEKWAVLFDGVRIPIHPMVGVIGVAPQEGEYPTGTAHRHGGNMDTKEITENVTVHLPVFQEGALLALGDVHATMGDGEVCVSACEVPAKVVVEIDVSKEEIKWPVVETNDAYYIIVSLPDIEEALKEVTRETVWFIQRRKTIPFTDAYMLASLSVDVGISQLVNPAKTAKARIPKYIFTGV,soluble
8,MAEKFKIIMTEALSLYIWGCNILNTEKLETLLGFYKQYKALSEYIDKKYKLSLNDLAVLDLTMKHCKDEKVLMQSFLKTAMDELDLSRTKLLVSIRRLIEKERLSKVRSSKDERKIYIYLNNDDISKFNALFEDVEQFLNI,not soluble
9,MGTIGKKAAKGASVKFSESSTQAVIKATYLQVFGRDVYEGQRLKVQEIKLENGEISVRDFVRALAKSDLFRKLYWTPFYVCKAIEYIHRRLLGRPTYGRQENNKYFDIASKKGLYAVVDAILDSLEYTETFGEDTVPYERYLTPAGLEHHHHHH,not soluble
10,MGSDKIHHHHHHMNIAMFSDTYAPQINGVATSIRVYKKKLTERGHKVVVVAPSAPEEEKDVFVVRSIPFPFEPQHRISIASTKNILEFMRENNVQIIHSHSPFFIGFKALRVQEEMGLPHVHTYHTLLPEYRHYIPKPFTPPKRLVEHFSAWFCNMTNVVIAPTEDIKRELESYGVKRPIEVLPTGIEVEKFEVEAPEELKRKWNPEGKKVVLYAGRIAKEKNLDFLLRVFESLNAPGIAFIMVGDGPEREEVEEFAKEKGLDLKITGFVPHDEIPLYYKLGDVFVFASKTETQGLVLLEALASGLPVVALKWKGVKDVLKNCEAAVLIEEENERLFAEKIKHILKNDRLREELSTKGREFVRKEWSVDRFVQRLEEIYTRAIEEGPVEINTSLMIKEFVKFEKLKEFFSKIEDRIWR,not soluble
11,GIQPVISAQEQETQIVLYGKLVEARQKHANKMDVPPAILATNKILVDMAKMRPTTVENVKRIDGVSEGKAAMLAPLLEVIKHFCQTNSVQTDLFSSTKPQEEQ,soluble
12,MKAYDIEIVNDAAHAGEANHGWCFGLPPGIRPEQWPLDPDTGYPLMHGFTLLLPEDYRVHGPEIVALSFFSLAPDQNDGGPTSVDGIREMLIDPPAQPPAEAELRPFWEAGRNSHPRLHRMEDILGGAYALILLDAAEFSGAPCQPRALPAGNPLLAQTEPPQWLEAGSAASFVPDWAEDDYYLLRALGGRPAAGHQQRYPLRWTARAQDPNAGVVPSEYGDGGYQLPHYWLDGKIERDNYREHPWVEGHLPNHIGGTMRPVQGVPEMSPFYVEFEEYLGGYNFGGGNAQLDFRDMRFDWACG,not soluble
13,MRWNRMNPFGSYKKVVSARSTLKEVLKKAQDGGIVSTAFIYGLENNLLDGVIVADNAGEFKAVPKVATTPEEVLEAAGTKYTVCPNISVLKSAVREYGCEKIGVVGTPCQVRAVRKLMKYPVGFRHVPDKIALIIGIFCMENFPYYGLKLIVEEHCGVKMEDVVKMDIGKGKFWVYTRWGETKAIKLKETHPYEQIACHVCTDYTAELADISTGSVGSPDGWSTVFIRTAKGEEIFNKMVEDGYLEVKPIEEVKPGLGLVEKLALQKKEKNMKEIEHRKELGLPIPYLEHHHHHH,soluble
14,MAHHHHHHMSVIGVFSKGRATGHASVMSVLRYVPRARVPWQPSRFGRENLADDDMAQLWGTGRYRTGPGNYNSGYSTKKTHALEDSTVSIIPKHELEKFMPDISLGSKALVTPVSLMSARNGHRVTHDLIHSYDPYIGRLQKPAVVDHDNITVEDPNRVGLNAATLDCRSRIYRWLRRGPFFQEDNYFRRSTKLQRNGPVPVSVHEVPLMQRIIRLARRGHLKAACEEYRRVTSVPPVDVYRALTAACVPGAKLADAIAIFEDGHSRLFYVARDGEVLHNMLRCAIRAKHRVRVMWVYNVMVGRHYENVVVRAEVDVIWRYRIASLALEYLLDSNAGEEARTVYDYLVENELVDCDLHVRLGHVMQQALKEGKTVHVQQDALDGMALSQNVVAVAPQVAVAVYARYLETMQEGAAWTDARGLPLTDPAKTGADTNGAAAVAWLKAAFPDIDPVAVLRLARFRRSSKDLMAKDRPVYVQRAAQWVELLSSAHQTREEAPLTYLRKSRPSMANPNVRVAWLPERQRAHALLASDEGFKFAYAGPHTRFVEETFAYGENTLQSRYLAQQPVHTEVTPSVALGAAAVAAGMSSGSALPRLPGSSAAPQILHASVLLDGSLNGSSGSGTSTLRSGRNESAKAAASPTAGISSRPSSASSSAGLDDTHF,not soluble
15,MMYIYTYTDPFGKRRYTYSKDLVKLREKEQKLLKDQLDGLDVYAAGNANLNFVFDRYISTKTELRRTTYTNYMYMYDHYVRDSFGKKKIGEIKYSDVLYFYYHLINERKLQVNTLETIHTVLHPTFQLAVRDDIIRNNPSHGVMSEIKKKPGRNHGVRHALTVEQQRAFMNYTSNSPVFNHWAPLFTVLLGTGCRIGEIIGIRWEDIDLEKRLININHSVTYYPRRAETTKCEFAVSLPKTEAGIRTVPMMEPVYNAFMEEYEYQKENGFSTVTLDGMEGFIFTNRFGNLHNPQAVNRTIKRI,not soluble
16,MANLQNMSSSPKHTNGSSERSENCGELCVVCGDKASGRHYGAVSCEGCKGFFKRSIRKRIGYVCRSQKDCPVTKFHRNRCQYCRLRKCLSMGMRSESVQAERRPVNNSSMLCNNDNNQQNTTPEHLSPNLLLSLVKLEHETKLGGLEALIKPGSPVMLQNTQDYMDVKRESIGEDEMTVIGLVPPSASPTSSGVGSSSSISDDSGPIYTSERARFEISVPLNTQNPRNHQYISEITTRLLFLTVHFVKDSRVSLRTSTMEGLLKSKWCDLYILALMQTADKIKLGQLLDNLTNQMAMGMECGQYSAEKFEKISEQMQRLLQLSQLFASRELTAVEYAYLKMISFTAQDLPSSMASPETRSVNQMASQELFEYVSSSKSTQNHMSNEHINVDDSTSEDNDTHVTSQQSSVNIAAERFSRILQLLPCLRWFDPATIVEIFFSGLIGPMSIETIIPFVLQMNLMSFFDQKMELGSGGASDTLSTSSLSEMMNNQ,not soluble
17,MSERVCAVIVTYNRKALLRECLKAVLSQTRPPDHVLVVDNASTDGTPEMLQEEFPQVEVLRLPENQGGAGGFHEGMKRAYEQGVDWLWLMDDDTIPKAKALEALLEAARLPLDPRPRVLASRQLLPNGLPHPTTAFVNPTDPRHPFLWLRLRPRYRPIRWALFTSVLLHRSLVEEHGLPHKAFFIWEDDLEYTARALRRGLGLQVRDSEVIHKSASKPYISATTGENRLFYGVRNRIWVLRSPAFGPLGKAFLALQLLFGLLTYLAFHPSQKSLQEIGRALRAGLTTSPCLEHHHHHH,not soluble
18,MKNAETPVFKLVLFGPESSLGNALMVELLSRQHEVIAVVDDLNRHSPRPGLHFKIGGLGDAHQAEQGAAGGSAVIALLPALAPGDLPGQARLSEALVAGLARTTIRRLLLVGDFDVLDEPGKYSEVERECVAQVVDGLQRSALHWTLINAPQELAGLGMEHFRSTEGTLEPGLAEPLRRLSRIAAGMVDMLELDLHRSEHLNFVV,not soluble
